# Data published in patent US6767716B2, “Chemluminescent systems containing unsaturated 1,2-dioxetanes” (priority 2000, dated 2004).
# Assay: Stability of diluted alkaline phosphatase in the enzyme diluent
# Type: physicochemical
# Details: ≅100 molecules of alkaline phosphatase per ml of diluent, stored at 4° C.
# Text: As is known to those skilled in the art, the stability of the enzyme is the most important factor in the detection of biological molecules. The present invention utilizes a unique diluent or buffer based upon the composition of human blood serum. The present diluent is a tris-buffer containing proteins, metal halides such as sodium chloride, potassium chloride, magnesium chloride, zinc chloride, and the like, alcohols or polyhydric alcohols and sodium azide. The pH of the buffer is between 7.5 to 8.5.
substance,measurement,value
alkaline phosphatase,stability of enzyme in diluent,stable at least for one week
